The record followed here is patent US7659376B2, “Antibody that binds glyphosate resistance protein” (priority 2002, dated 2010).

Test [1] has as its system E. coli XL1 Blue MRF′. The test can be described thus: Growth of GRG-1 or aroA expressing strains in M63 liquid medium with glyphosate, absorbance at 600 nm at 24 hours. Conditions: M63, +IPTG. The test is classed as cell-based. The protocol:
In addition, these strains engineered to express either GRG-1 or the wild-type E. coli aroA, were tested in another minimal media, M63, with glyphosate concentrations up to 150 mM. 1×M63 was supplemented with 10 g glucose, 10 mg Thiamine-HCl and 25 mg L-Proline. The strains were grown to saturation (overnight) in Luria Broth (Sambrook and Russell, 2001, supra) then washed two times in M63 media (adapted from Current Protocols in Molecular Biology, Greene Publishing and Wiley-Interscience, New York) before being diluted 1:100 in fresh M63 liquid medium containing 0 to 150 mM glyphosate. High level transcription from the Ptac promoter was stimulated by including 0.1 mM IPTG all of the cultures.
Each culture was grown in 2 mls of media in 10 ml tubes at 37° C. in a shaker. At 24 hours, 300 microliters of the culture was withdrawn and placed into a 96-well assay plate. The absorbance of the culture at 600 nm was measured on a Spectromax 96 well plate reader. The values in Table 8 reflect this experiment at 24 hours (NT not tested).

Test [2] deals with E. coli XL1 Blue MRF′. As to the kind of experiment: Growth of GRG-1 or aroA expressing strains in M9 liquid medium with glyphosate, absorbance at 600 nm at 8 hours. Conditions: for absorbance of the culture at 600 nm: 8 hours, mean of three cultures. Type of test: cell-based. The source says: Strains engineered to express either GRG-1 or the wild-type E. coli aroA were engineered as described in the following way. A customized expression vector, pPEH304 Cm was constructed. The essential features of pPEH304 Clare the origin of replication from pBR322, a chloramphenicol acetyl transferase gene (for selection and maintenance of the plasmid), the lacI gene, the Ptac promoter and the rrnB transcriptional terminator. The GRG-1 open reading frame was amplified as described in Example 7. […] The aroA open reading frame was amplified by PCR from E. coli strain XL1 Blue MRF′ (Stratagene). During PCR, restriction sites were added to facilitate cloning into pPEH304 Cm.
The PCR products for GRG-1 and aroA were cloned into the expression vector pPEH304 Cm to yield the plasmids pPEH306 and pPEH307, respectively, and transformed into E. coli XL1 Blue MRF′. Correct clones were identified by standard methods known in the art. The sequence of the GRG-1 and aroA open reading frames in expression clones in pPEH306 and pPEH307 were confirmed by DNA sequencing.
Strains were grown to saturation (overnight) in Luria Broth (Sambrook and Russell, 2001, supra) then diluted 1:100 in M9 liquid medium (recipe) containing 0 to 30 mM glyphosate, and supplemented with 10 g glucose, 10 mg Thiamine-HCl and 25 mg L-Proline. High level transcription from the Ptac promoter was stimulated by including 0.1 mM IPTG in a subset of the cultures (noted as +IPTG in Table 7).
Each culture was grown in a 3 ml tube at 37° C. on a culture wheel. There were three replicate tubes of each treatment. After 8 hours of growth, 310 microliters of culture was withdrawn and placed into a 96-well plate. The absorbance of the culture at 600 nm was measured on a Spectramax 96 well plate reader. The experiment was performed in triplicate, and the values in Table 7 reflect the means of three cultures.

Where [3] appears, read: glyphosate concentration 0, 24 hours.
Setting [4] is: glyphosate concentration 5 (mM), 24 hours.
[5] abbreviates: glyphosate concentration 30 (mM), 24 hours.
The mark [6] stands for this setting: glyphosate concentration 60 (mM), 24 hours.
Setting [7] is: +IPTG (0.1 mM), 0 mM glyphosate.
Where [8] appears, read: +IPTG (0.1 mM), 5 mM glyphosate.
Setting [9] is: +IPTG (0.1 mM), 10 mM glyphosate.
Setting [10] is: +IPTG (0.1 mM), 20 mM glyphosate.
Where [11] appears, read: +IPTG (0.1 mM), 30 mM glyphosate.

B1: GRG-1: glyphosate resistance protein (SEQ ID NO:2), homologous to EPSP synthases; expressed in E. coli from plasmid pPEH306 (protein)
chain: MKVTIQPGDLTGILQSPASKSSMQRACAAALVAKGISEIINPGHSNDDKAARDIVSRLGARLEDQPDGSLQITSEGVKPVAPFIDCGESGLSIRMFTPIVALSKEEVTIKGSGSLVTRPMDFFDEILPHLGVKVKSNQGKLPLVIQGPLKPADVTVDGSLSSQFLTGLLLAYAAADASDVAIKVTNLKSRPYIDLTLDVMKRFGLKTPENRNYEEFYFKAGNVYDETKMQRYTVEGDWSGGAFLLVAGAIAGPITVRGLDIASTQADKAIVQALMSANAGIAIDAKEIKLHPADLNAFEFDATDCPDLFPPLVALASYCKGETKIKGVSRLAHKESDRGLTLQDEFGKMGVEIHLEGDLMRVIGGKGVKGAEVSSRHDHRIAMACAVAALKAVGETTIEHAEAVNKSYPDFYSDLKQLGGVVSLNHQFNFS
modifications: Enterobacteriaceae
notes: expressed in E. coli from plasmid pPEH306
As for B1, the “absorbance of the culture at 600 nm” value in test [1] (setting [3]) came to 0.4943; in test [1] (setting [4]), 0.7192; in test [1] (setting [5]), 0.7884; in test [1] (setting [6]), 0.789; in test [1] (glyphosate concentration 150 (mM), 24 hours), 0.951; in test [2] (setting [7]), 0.100. For the same molecule, the “absorbance of the culture at 600 nm” value in test [2] (setting [8]) is listed as 0.104; in test [2] (setting [9]), 0.117; in test [2] (setting [10]), 0.125; in test [2] (setting [11]), 0.135; in test [2] (no IPTG, 0 mM glyphosate), 0.092; in test [2] (no IPTG, 5 mM glyphosate) it was 0.102. For the same molecule, the “absorbance of the culture at 600 nm” value was 0.110 in test [2] (no IPTG, 10 mM glyphosate); 0.112 in test [2] (no IPTG, 20 mM glyphosate); 0.104 in test [2] (no IPTG, 30 mM glyphosate). For the same molecule, the “glyphosate concentration in whose presence survival and growth of E. coli is allowed” value in test [2] (summary of Table 7) is on record as 30 mM.

B2: aroA: wild-type E. coli aroA (EPSP synthase), expressed from plasmid pPEH307 (protein, UniProt P0A6D3 1-427, looked up)
3-phosphoshikimate …: MESLTLQPIARVDGTINLPGSKSVSNRALLLAALAHGKTVLTNLLDSDDVRHMLNALTALGVSYTLSADRTRCEIIGNGGPLHAEGALELFLGNAGTAMRPLAAALCLGSNDIVLTGEPRMKERPIGHLVDALRLGGAKITYLEQENYPPLRLQGGFTGGNVDVDGSVSSQFLTALLMTAPLAPEDTVIRIKGDLVSKPYIDITLNLMKTFGVEIENQHYQQFVVKGGQSYQSPGTYLVEGDASSASYFLAAAAIKGGTVKVTGIGRNSMQGDIRFADVLEKMGATICWGDDYISCTRGELNAIDMDMNHIPDAAMTIATAALFAKGTTTLRNIYNWRVKETDRLFAMATELRKVGAEVEEGHDYIRITPPEKLNFAEIATYNDHRMAMCFSLVALSDTPVTILDPKCTAKTFPDYFEQLARISQAA
For B2, the “absorbance of the culture at 600 nm” value is on record as 0.5982 in test [1] (setting [3]); 0.1209 in test [1] (setting [4]); 0.0276 in test [1] (setting [5]); 0.0298 in test [1] (setting [6]); 0.075 in test [2] (setting [7]); 0.068 in test [2] (setting [8]). Besides, the “absorbance of the culture at 600 nm” value is reported as 0.063 in test [2] (setting [9]); 0.056 in test [2] (setting [10]); 0.052 in test [2] (setting [11]); 0.095 in test [2] (no IPTG, 0 mM glyphosate); 0.048 in test [2] (no IPTG, 5 mM glyphosate); 0.046 in test [2] (no IPTG, 10 mM glyphosate). Moreover, the “absorbance of the culture at 600 nm” value in test [2] (no IPTG, 20 mM glyphosate) was 0.047; in test [2] (no IPTG, 30 mM glyphosate), 0.048. In test [2] (summary of Table 7), the “glyphosate concentrations that inhibit growth of expressing cells” value is on record as at least 10 mM.
